± gives the uncertainty stated by the source.

A short description of the series: amyloid nucleation score (Sup35N fusion, yeast selection) (log enrichment); library NNK2; higher = more nucleation; inactive = no reads after selection. The method, boiled down:
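Sup35N was fused to peptides of 20 random codons and expressed in psi-negative yeast, which were induced with 100 μM copper sulfate for 24 hours and then grown on medium lacking adenine and uracil for 7 days at 30°C. Plasmid inserts from input and output were sequenced on Illumina. The nucleation score is the DiMSum log enrichment of output over input reads, centred on the mode score of non-aggregating sequences. Sequences with under 100 input reads were left out, and random libraries had three technical output replicates.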
HYPQYCFFARKIFITCGYME came in with an amyloid nucleation score of 5.22 ± 0.061. The substance LLINLVPFWLILRHDYLIKF came in with an amyloid nucleation score of 0.959 ± 0.74. Then LRASWLYYFKSKVSFGCKGD, with -0.405 ± 0.41; and YLIDFRTRWIRISKA, with -0.695 ± 0.61; and TCFHR, with 0.285 ± 0.55. RIYGILVSFYCIVYDGFSGG came in with an amyloid nucleation score of 1.9 ± 0.082. CECETVSLTFEHWCTRGRLG gave an amyloid nucleation score of 5.156 ± 0.047. Turning to PASISLNFS, the amyloid nucleation score came out at 1.58 ± 0.22. With FQCNCTLSQIAWNKSQGQSS, the amyloid nucleation score is -0.363 ± 1.1.

Consider PLCRRLVLLFRIFYNSRN, for which the amyloid nucleation score is -1.46 ± 1.1. GDRYSSYSRFEEY returned an amyloid nucleation score of 0.565 ± 0.19. NNGPSKT: the amyloid nucleation score was 0.51 ± 0.54. As to DRLLDLIVWGVFWQLGMRFL, the amyloid nucleation score result was “inactive”. For LMSIVVKVVDSTIIIKCVFS, the amyloid nucleation score was -0.667 ± 0.76.

Substance ICSKRIFFSA displayed an amyloid nucleation score of -0.772 ± 1.1. Turning to VSRKV, the amyloid nucleation score worked out at 0.476 ± 0.23. For FVHERASGIVMLRGISVRGP the value was -0.327 ± 0.48; for YTLDMIIELSLDDGGYVVWG, 4.756 ± 0.04; for VFWLNGWYCYI, 3.65 ± 0.056.

In turn, SRITCKDVMLL came in with an amyloid nucleation score of -0.654 ± 0.49.

Take TYFVVGDSLSVIFSGRNWGV: the amyloid nucleation score stood at 5.408 ± 0.043. Then RTRLS, with 0.559 ± 0.21; and WTNFVGLSALFSMWV, with -1.54 ± 1.1. Regarding LKWVYLSSIALTFAPPRRLD, the amyloid nucleation score was determined as 3.63 ± 0.069. In the case of YRLFWFNC, the amyloid nucleation score was determined as 1.74 ± 0.11. On to VGFHEDNMEVR, for which the amyloid nucleation score result was “inactive”. As to FTFDMVSSKSQYMNIDRNVR, the amyloid nucleation score is -0.996 ± 0.78. Consider YIGVKKNNSMAGAYGGSLAQ, for which the amyloid nucleation score result is “inactive”.

As for ARTRLALWGLQRRGSPVFDN, the amyloid nucleation score stood at 0.157 ± 0.63. Then KFNGPKIVYFISTSMVLLVS, with -0.406 ± 1.1; and LVSMNFYCMILGIESLFVLS, with 4.04 ± 0.074. TLLWSRTMYVGIPSYRYGGA came in with an amyloid nucleation score of 0.676 ± 0.8. TNISMLNDVGEGCFGERSLV came in with an amyloid nucleation score of -0.291 ± 0.54. CCGLGELNLALLRELSWRVG displayed an amyloid nucleation score of 1.34 ± 0.25.

With NTLTTFVIGGCCLRFEASYM, the amyloid nucleation score is 10.52 ± 0.077. As to SWGFI, the amyloid nucleation score was -2.19 ± 0.62. For VKTRVQPRTGDLSATLLGLE, the amyloid nucleation score is 0.828 ± 0.48. For WRVLFQDFRCKINYLGSSSR, the amyloid nucleation score result was “inactive”.

HHRIFGMIDELSKVTNIHFG came in with an amyloid nucleation score of -0.434 ± 0.74. As to IQVASRRIIM, the amyloid nucleation score was 0.063 ± 0.21. In turn, VIIFFFVFRCMPDLIQVYCV registered an amyloid nucleation score of -1.72 ± 1.

In turn, NSLYRGRRHRAYDINVSFVK registered an amyloid nucleation score of -0.392 ± 0.48.

As to FDILDCDNLELGLYIFILDL, the amyloid nucleation score was -1.14 ± 1.

Turning to PSHSRMRIMNSTYSSFLLKV, the amyloid nucleation score came to 0.214 ± 0.18. For TVFKYLTFLGSIVFSTVPLV, the amyloid nucleation score is 0.088 ± 0.56. For SCHLLL the value was -0.891 ± 1.1; for CMDYHICHIM, 3.89 ± 0.11; for CSFGPIVAD, -1.12 ± 0.63. For YSLVLYWMWNCYRNRLDSGF the value was -0.185 ± 0.63; for LNGLDPSNAHMIYYLYTSYL, -1.25 ± 0.54. On to DNKYGFMIVIYTYSAGDAEE, for which the amyloid nucleation score is 2.62 ± 0.061. SNCFNCYLISNWKYVTVSLS returned an amyloid nucleation score of 6.23 ± 0.067.

In turn, YFYCRYYMNRWNYYL returned an amyloid nucleation score of -0.396 ± 0.33. In the case of VTQRWLAFERWKLPCSLPSH, the amyloid nucleation score is 0.02 ± 0.79. Then LYKRMYECRRYFLMWNYRGF, with “inactive”. Take FFVPYDSYTYHLILFLKQLV: the amyloid nucleation score was -0.535 ± 0.53. Then GGLPGRVVEATCWYPVINVR, with 0.889 ± 0.47; and RFFCYKSYMLLECLRIVSVC, with -0.853 ± 0.78; and VRLLMKLYNVPWVFH, with “inactive”. Take EESGGYC: the amyloid nucleation score is -0.893 ± 0.25.

Substance NYREMLWSDIRVVS registered an amyloid nucleation score of 0.004 ± 1.1. SIFLREDVVFSDLLRWFR displayed an amyloid nucleation score of 5.572 ± 0.045.

NRVVHFISIFGFMNS came in with an amyloid nucleation score of 3.6 ± 0.098. VKYVIIEHFNWSVSCCAYLR had an amyloid nucleation score of 1.37 ± 0.23. HIGILTT registered an amyloid nucleation score of 1.64 ± 0.32. As for MLFSTATYSSGRRFDFVEIA, the amyloid nucleation score worked out at 0.422 ± 0.65. The substance CTLRSLEAVLRVLIGYALRH returned an amyloid nucleation score of 0.223 ± 0.3.

In the case of MNIAVIHNMVQGSKAPDYHF, the amyloid nucleation score was 4.67 ± 0.075. Then NSFRISGLVDLVNNLSGYLS, with -1.34 ± 0.61. For MSFNQLIMFETRSSTPYRWR the value was 5.71 ± 0.078; for GSWLFREVMPA, -0.51 ± 0.44. For the substance KNKTL, the amyloid nucleation score amounted to 0.576 ± 0.46.

EDSPPFWGVVWPFTRNNDRK returned an amyloid nucleation score of 1.11 ± 0.52. For PCPSISGLFASAYPITRLSL, the amyloid nucleation score is -0.347 ± 0.24. Substance QMICFHSWLGGSSLTVFHHC yielded an amyloid nucleation score of 3.84 ± 0.12. For TRRCIERNRNVLFFTFMCRL, the amyloid nucleation score came out at 1.41 ± 0.27. For CTNAGRFMTWSNFRYIG, the amyloid nucleation score is 0.501 ± 0.8. Substance DWWERGRVGSGCQSLGVTLH had an amyloid nucleation score of 0.923 ± 0.81. In turn, CAEAFVMGFSSKGGVINRAL came in with an amyloid nucleation score of 2.1 ± 0.12.

GLRTK gave an amyloid nucleation score of 0.622 ± 0.41. Take LYTKRSKY: the amyloid nucleation score was -0.161 ± 1.1. As for FNTCGSHRSGRRFL, the amyloid nucleation score entry is “inactive”.

MNASDIKTFKL: the amyloid nucleation score was -0.531 ± 1.1.

With EQYPNKPVRCEVRATATWGP, the amyloid nucleation score came to 0.245 ± 0.27. Consider YMNSSLARISPRGSRCERQ, for which the amyloid nucleation score was 0.162 ± 0.38. For MWWYSFPLGLLWVFNS, the amyloid nucleation score result is “inactive”. Consider RLPAFSRFG, for which the amyloid nucleation score is -0.452 ± 0.37. In turn, PTRCRVSYKRLRCSQLSLQL came in with an amyloid nucleation score of -0.012 ± 0.79. Regarding GGYGLICCYQMLEDSTKDMM, the amyloid nucleation score is -0.603 ± 1.1. Turning to KILFPVR, the amyloid nucleation score was -0.927 ± 1. For YRVVTSTVKMRLWSRGVYDH, the amyloid nucleation score was found to be 3.07 ± 0.088.

The substance KIEGHGFYYLFNWTA registered an amyloid nucleation score of -0.833 ± 0.78. In turn, IWLLHQCSLATLGFC gave an amyloid nucleation score of -1.25 ± 0.62. For GSAHTCSTS, the amyloid nucleation score stood at 0.077 ± 0.3. In the case of CKWTSKIWMRLVRKSEMSVE, the amyloid nucleation score came out at 1.16 ± 0.27. With VAVISDWGWQNWMSVVGVGH, the amyloid nucleation score result was “inactive”.

For the substance KVLTCRIYSIWVLIC, the amyloid nucleation score is 0.009 ± 0.32. In the case of NLSCNLFVSFWYGW, the amyloid nucleation score came to 4.67 ± 0.068.

IKCLYV: the amyloid nucleation score was -0.127 ± 1. The substance TTTCLMLLRVNFNTALLIRN yielded an amyloid nucleation score of -1.41 ± 0.49. Regarding DFRKNANRLLRIYGVMRECA, the amyloid nucleation score is -0.016 ± 0.19. In turn, QRADQWVSRKLRPSIARL displayed an amyloid nucleation score of 1.52 ± 0.34. On to QVTSNRSTGRRYILNQMC, for which the amyloid nucleation score was -0.337 ± 1.1. Consider MFLKVSLVGNMVSEKPGRSS, for which the amyloid nucleation score was 3.21 ± 0.15. Then SLHVTGWFTSDVVFNLWVDV, with -0.145 ± 0.48; and MFNCTQSVLPLGF, with “inactive”. Substance FLSSSGRFSIVYSLFYEWIP registered an amyloid nucleation score of -0.674 ± 0.76. NNATLGQAFSRQ came in with an amyloid nucleation score of 0.542 ± 0.17. Then NKCEIKLRKWQSSP, with -0.337 ± 0.34; and IYLHFGNLLNYFETRRTVFR, with 6.19 ± 0.087; and CDRFYSSLVNSVGYCLLNAY, with 1.47 ± 0.21. Turning to TGLTH, the amyloid nucleation score is -0.737 ± 0.54. Then ADYGVGSRFFVALFSNVFGV, with 8.15 ± 0.071; and GTSCSMGPAWGLSCYGTFVD, with -0.288 ± 0.55. WSTAFSKLNSSRKSD had an amyloid nucleation score of -0.582 ± 0.76. Substance WRRTTYYGRDRGQVLGNNAG returned an amyloid nucleation score of -0.009 ± 0.36. As to FEAYYWLADLNLLCYLGVRS, the amyloid nucleation score was 3.79 ± 0.052. SMYVN: the amyloid nucleation score was -0.384 ± 0.56. Turning to NMFRIVASTY, the amyloid nucleation score stood at 0.598 ± 0.47. As to VWQSYRFEEYFCICFQLASA, the amyloid nucleation score came out at 7.923 ± 0.031. Regarding TYGHDKLRVSNIEHQLPGRA, the amyloid nucleation score came to 0.306 ± 0.64. Then TGFQLVNWSNIGLWNNLYGR, with 5.49 ± 0.065; and ALFRD, with 0.066 ± 1. Substance TKRHE returned an amyloid nucleation score of 0.987 ± 0.58. Regarding RTGSALAHCFCDMQYVAATI, the amyloid nucleation score result is “inactive”. IPWVNRTPCSTCGGFRFTDP gave an amyloid nucleation score of 3.53 ± 0.08. The substance YSLYINLSNAGIGVYPLKPA showed an amyloid nucleation score of 7.252 ± 0.062. For the substance RHHGVRIYMRNFGNVYVYIR, the amyloid nucleation score was determined as 3.85 ± 0.11. For the substance SLEPYMFCSILINFYFFISV, the amyloid nucleation score is 3 ± 0.14. For the substance DFCGRG, the amyloid nucleation score is -0.152 ± 0.76. Regarding AMVLLYDGTGSTGVNPGQAG, the amyloid nucleation score came to 0.987 ± 0.67.

In turn, CKLEQYRASWINLVTHLDEA had an amyloid nucleation score of 0.073 ± 0.63. For LCHTRCDRNSSCLL the value was -0.56 ± 0.79. As for WSTASSVLIICIQRFF, the amyloid nucleation score result was “inactive”. Then QIPVELNNVLNLYLVLCRIE, with -0.459 ± 1.1. In turn, SRYVPMSFY came in with an amyloid nucleation score of 0.125 ± 0.79.

In turn, CTFSVF showed an amyloid nucleation score of -1.71 ± 0.48. On to MLCRYVVVQGLKVNMGHVFC, for which the amyloid nucleation score is 7.567 ± 0.065. Then SRHVLSKRFRWYT, with 0.196 ± 0.26; and HVDIRLWTFNRSRFIGVFGV, with 2.75 ± 0.079; and KLGFWVGSWLSSRSVDCSCM, with 1.33 ± 0.35.

Values taken from the supplement of paper PMC12042874.
